Publication PMC9857240

Biological target: His6-GFP-nCLU
Test: AlphaScreen or HTRF; 30 nM His6-GFP fusion protein with 0-60 nM biotinylated GST-IPO13; triplicates, sigmoidal association curves

- Kd: 2.8 nM
B1: biotinylated GST-IPO13 (natural protein)
chain: MERREEQLGAAGAGAAPALDFTVENVEKALHQLYYDPNIDNKNLAQKWLMQAQVSPQAWHFSWQLLQPDKVPEIQYFGASALHIKISRYWSDIPTDQYESLKAQLFTQITRFASGSKIVLTRLCVALASLALSMMPDAWPCAVADMVRLFQAEDSPVDSQGRCLALLELLTVLPEEFQTSRLPQYRKGLVRTSLAVECGTVFPLLEQLLQQPSSPSCVRQKVLKCFSSWVQLEVPLQDCEALIQAAFAALQDSELFDSSVEAIVNAISQPDAQRYVNTLLKLIPLVLGLQEQLRQAVQNGDMETSHGICRIAVALGENHSRALLDQVEHWQSFLALVNMIMFCTGIPGHYPVNETTSSLTLTFWYTLQDDILSFEAEKQAVYQQVYRPVYFQLVDVLLHKAQFPSDEEYGFWSSDEKEQFRIYRVDISDTLMYVYEMLGAELLSNLYDKLGRLLTSSEEPYSWQHTEALLYGFQSIAETIDVNYSDVVPGLIGLIPRISISNVQLADTVMFTIGALSEWLADHPVMINSVLPLVLHALGNPELSVSSVSTLKKICRECKYDLPPYAANIVAVSQDVLMKQIHKTSQCMWLMQALGFLLSALQVEEILKNLHSLISPYIQQLEKLAEEIPNPSNKLAIVHILGLLSNLFTTLDVSHHEDDHEGPELRKLPVPQGPNPVVVVLQQVFQLIQKVLSKWLNDAQVVEAVCAIFEKSVKTLLDDFAPMVPQLCEMLGRMYSTVPQASALDLTRQLVHIFAHEPAHFPPIEALFLLVTSVTLSLFQQGPRDHPDIVDSFMQLLAQALKRKPDLFLCERLDVKAVFQCAVLALKFPEAPTVKASCGFFTELLPRCGEIESVGKVVQEDGRMLLIAVLEAIGGQASRSLMDCFADILFALNKHCFSLLSMWIKEALQPPGFPSARLSPEQKDTFSQQILRERVNKRRVKEMVKEFTLLCRGLHGTDYTADY
modifications: biotinylated
